What was measured:
ADI-22523 IgG = target: T1, ADI-22523 IgG; experiment: BLI; tip anti-ID IgG, solution ADI-22523 IgG
T1 construct: anti-CD3 IgG
Method in brief: (§1)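 Bio-layer interferometry with anti-ID IgG loaded on AHC tips. KD (koff/kon) from 1:1 binding model fit; avid format.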

ADI-74967 = target: T2, ADI-74967; experiment: SPR Carterra avidity, yeast anti-ID
T2 construct: pH-dependent anti-CD3 antibody made in CHO cells
Method in brief: (§2)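 Anti-CD3 IgGs (100 nM) captured on goat anti-human Fc amine-coupled HC30M chip; anti-idiotype antibodies flowed as analytes, dissociation 300 s, HBSTE running buffer, 25° C. Double-referenced sensorgrams fitted to 1:1 model; glycine pH 1.7 regeneration.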

ADI-67447 = target: T3, ADI-67447; experiment: SPR Carterra avidity, yeast anti-ID
T3 construct: anti-CD3 antibody made in CHO cells, captured by anti-human Fc
T3 sequence (VH, as listed by the source limits assumed, chain 1 of 2): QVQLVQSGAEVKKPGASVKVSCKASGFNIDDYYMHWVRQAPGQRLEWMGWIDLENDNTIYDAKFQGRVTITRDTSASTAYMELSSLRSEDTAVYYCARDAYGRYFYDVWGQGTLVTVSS
T3 sequence (VL, as listed by the source limits assumed, chain 2 of 2): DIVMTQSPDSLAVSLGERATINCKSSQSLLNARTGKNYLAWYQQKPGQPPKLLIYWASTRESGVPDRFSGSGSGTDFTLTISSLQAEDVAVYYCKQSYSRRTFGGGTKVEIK
Method in brief: as §2

ADI-70326 = target: T4, ADI-70326; experiment: SPR Carterra avidity, yeast anti-ID
T4 construct: anti-CD3 antibody made in CHO cells, captured by anti-human Fc
Method in brief: as §2

ADI-67450 = target: T5, ADI-67450; experiment: SPR Carterra avidity, yeast anti-ID
T5 construct: anti-CD3 antibody made in CHO cells, captured by anti-human Fc
Method in brief: as §2

ADI-26912 = target: T6, ADI-26912; experiment: SPR Carterra avidity, yeast anti-ID
T6 construct: anti-CD3 antibody made in CHO cells, captured by anti-human Fc
T6 sequence (VH, as listed by the source, chain 1 of 2): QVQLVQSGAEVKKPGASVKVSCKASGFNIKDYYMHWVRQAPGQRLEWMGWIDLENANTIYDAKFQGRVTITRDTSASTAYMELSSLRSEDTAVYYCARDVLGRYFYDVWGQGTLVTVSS
Method in brief: as §2

ADI-26921 IgG = target: T7, ADI-26921 IgG; experiment: SPR Carterra avidity, yeast anti-ID
T7 construct: anti-CD3 IgG
T7 sequence (VH, as listed by the source limits assumed, chain 1 of 2): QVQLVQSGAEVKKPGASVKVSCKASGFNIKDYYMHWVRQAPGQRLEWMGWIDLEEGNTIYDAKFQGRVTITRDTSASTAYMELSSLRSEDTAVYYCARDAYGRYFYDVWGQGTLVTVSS
T7 sequence (VL, as listed by the source limits assumed, chain 2 of 2): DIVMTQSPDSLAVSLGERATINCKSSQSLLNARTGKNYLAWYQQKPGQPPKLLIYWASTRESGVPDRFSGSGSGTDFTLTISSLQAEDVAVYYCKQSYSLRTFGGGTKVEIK
Method in brief: as §2

ADI-74966 = target: T8, ADI-74966; experiment: SPR Carterra avidity, yeast anti-ID
T8 construct: pH-dependent anti-CD3 antibody made in CHO cells
Method in brief: as §2

ADI-76362 = target: T9, ADI-76362; experiment: SPR Carterra avidity, yeast anti-ID
T9 construct: anti-CD3 antibody made in CHO cells, captured by anti-human Fc
Method in brief: as §2

ADI-26909 = target: T10, ADI-26909; experiment: SPR Carterra avidity, yeast anti-ID
T10 construct: anti-CD3 antibody made in CHO cells, captured by anti-human Fc
Method in brief: as §2

ADI-50024 = target: T11, ADI-50024; experiment: SPR Carterra avidity, yeast anti-ID
T11 construct: anti-CD3 antibody made in CHO cells, captured by anti-human Fc
Method in brief: as §2

ADI-48587 = target: T12, ADI-48587; experiment: SPR Carterra avidity, yeast anti-ID
T12 construct: pH-dependent anti-CD3 antibody made in CHO cells
Method in brief: as §2

ADI-48592 = target: T13, ADI-48592; experiment: SPR Carterra avidity, yeast anti-ID
T13 construct: pH-dependent anti-CD3 antibody made in CHO cells
T13 sequence (VH, as listed by the source, chain 1 of 2): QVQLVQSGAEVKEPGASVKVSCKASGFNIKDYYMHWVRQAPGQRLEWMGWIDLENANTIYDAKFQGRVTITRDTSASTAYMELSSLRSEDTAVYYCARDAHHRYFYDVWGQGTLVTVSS
T13 sequence (VL, as listed by the source, chain 2 of 2): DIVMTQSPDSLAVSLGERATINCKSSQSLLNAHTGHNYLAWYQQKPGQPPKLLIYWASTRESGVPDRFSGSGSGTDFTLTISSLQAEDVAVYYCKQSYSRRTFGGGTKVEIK
Method in brief: as §2

ADI-74965 = target: T14, ADI-74965; experiment: SPR Carterra avidity, yeast anti-ID
T14 construct: pH-dependent anti-CD3 antibody made in CHO cells
T14 sequence (VH, as listed by the source, chain 1 of 2): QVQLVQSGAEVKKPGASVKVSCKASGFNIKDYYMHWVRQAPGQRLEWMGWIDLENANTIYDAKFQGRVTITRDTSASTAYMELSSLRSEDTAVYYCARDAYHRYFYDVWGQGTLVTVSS
T14 sequence (VL, as listed by the source, chain 2 of 2): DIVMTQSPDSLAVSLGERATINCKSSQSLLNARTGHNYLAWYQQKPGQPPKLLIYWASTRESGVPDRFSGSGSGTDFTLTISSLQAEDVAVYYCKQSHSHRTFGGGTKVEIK
Method in brief: as §2

ADI-76358 = target: T15, ADI-76358; experiment: SPR Carterra avidity, yeast anti-ID
T15 construct: anti-CD3 antibody made in CHO cells, captured by anti-human Fc
Method in brief: as §2

ADI-48576 = target: T16, ADI-48576; experiment: SPR Carterra avidity, yeast anti-ID
T16 construct: pH-dependent anti-CD3 antibody made in CHO cells
Method in brief: as §2

ADI-74968 = target: T17, ADI-74968; experiment: SPR Carterra avidity, yeast anti-ID
T17 construct: pH-dependent anti-CD3 antibody made in CHO cells
T17 sequence (VL, as listed by the source, chain 2 of 2): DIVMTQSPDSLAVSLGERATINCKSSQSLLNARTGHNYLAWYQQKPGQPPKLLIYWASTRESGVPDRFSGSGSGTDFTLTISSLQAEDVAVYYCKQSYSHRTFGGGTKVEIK
Method in brief: as §2

ADI-76361 = target: T18, ADI-76361; experiment: SPR Carterra avidity, yeast anti-ID
T18 construct: anti-CD3 antibody made in CHO cells, captured by anti-human Fc
T18 sequence (VH, as listed by the source, chain 1 of 2): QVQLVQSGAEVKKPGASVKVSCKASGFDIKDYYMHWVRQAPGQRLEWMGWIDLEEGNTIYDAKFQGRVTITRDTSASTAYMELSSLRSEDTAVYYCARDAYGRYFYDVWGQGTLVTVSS
Method in brief: as §2

ADI-76359 = target: T19, ADI-76359; experiment: SPR Carterra avidity, yeast anti-ID
T19 construct: anti-CD3 antibody made in CHO cells, captured by anti-human Fc
T19 sequence (VH, as listed by the source, chain 1 of 2): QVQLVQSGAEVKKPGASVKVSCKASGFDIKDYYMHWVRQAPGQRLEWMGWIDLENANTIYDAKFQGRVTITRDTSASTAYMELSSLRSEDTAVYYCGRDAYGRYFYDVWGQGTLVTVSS
Method in brief: as §2

ADI-48650 = target: T20, ADI-48650; experiment: SPR Carterra avidity, yeast anti-ID
T20 construct: pH-dependent anti-CD3 antibody made in CHO cells
Method in brief: as §2

ADI-76360 = target: T21, ADI-76360; experiment: SPR Carterra avidity, yeast anti-ID
T21 construct: anti-CD3 antibody made in CHO cells, captured by anti-human Fc
T21 sequence (VH, as listed by the source, chain 1 of 2): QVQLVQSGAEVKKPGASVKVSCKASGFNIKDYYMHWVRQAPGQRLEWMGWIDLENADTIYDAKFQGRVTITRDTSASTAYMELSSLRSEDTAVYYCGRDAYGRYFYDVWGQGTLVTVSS
Method in brief: as §2

ADI-67445 = target: T22, ADI-67445; experiment: SPR Carterra, yeast anti-ID
T22 construct: anti-CD3 antibody made in CHO cells, captured by anti-human Fc
Method in brief: as §2

CTL-62227 = target: T23, CTL-62227; experiment: SPR Carterra, yeast anti-ID
T23 construct: also called odronextamab
Method in brief: as §2

CTL-62223 = target: T24, CTL-62223; experiment: SPR Carterra, yeast anti-ID
T24 construct: also called mosunetuzumab
T24 sequence (VH, as listed by the source, chain 1 of 2): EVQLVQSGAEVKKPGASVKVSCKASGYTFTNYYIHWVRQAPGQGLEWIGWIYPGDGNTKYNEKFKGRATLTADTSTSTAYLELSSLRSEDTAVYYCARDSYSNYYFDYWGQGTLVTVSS
T24 sequence (VL, as listed by the source, chain 2 of 2): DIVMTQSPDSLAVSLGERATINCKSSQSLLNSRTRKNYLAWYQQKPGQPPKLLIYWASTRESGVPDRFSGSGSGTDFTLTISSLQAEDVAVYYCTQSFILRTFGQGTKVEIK
Method in brief: as §2

ADI-26915 = target: T25, ADI-26915; experiment: SPR Carterra, yeast anti-ID
T25 construct: anti-CD3 antibody made in CHO cells, captured by anti-human Fc
Method in brief: as §2

CTL-62240 = target: T26, CTL-62240; experiment: SPR Carterra, yeast anti-ID
T26 construct: also called ONO-4685
Method in brief: as §2

ADI-70327 = target: T27, ADI-70327; experiment: SPR Carterra, yeast anti-ID
T27 construct: anti-CD3 antibody made in CHO cells, captured by anti-human Fc
T27 sequence (VH, as listed by the source limits assumed, chain 1 of 2): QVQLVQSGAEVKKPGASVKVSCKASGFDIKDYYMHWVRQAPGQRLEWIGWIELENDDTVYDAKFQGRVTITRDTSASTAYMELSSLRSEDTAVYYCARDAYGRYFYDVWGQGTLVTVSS
T27 sequence (VL, as listed by the source limits assumed, chain 2 of 2): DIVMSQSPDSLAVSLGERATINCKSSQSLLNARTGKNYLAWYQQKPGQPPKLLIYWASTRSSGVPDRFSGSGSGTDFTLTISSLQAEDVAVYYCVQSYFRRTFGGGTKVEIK
Method in brief: as §2

CTL-62228 = target: T28, CTL-62228; experiment: SPR Carterra, yeast anti-ID
T28 construct: also called glofitamab
Method in brief: as §2

ADI-70330 = target: T29, ADI-70330; experiment: SPR Carterra, yeast anti-ID
T29 construct: anti-CD3 antibody made in CHO cells, captured by anti-human Fc
Method in brief: as §2

ADI-22523 Fab = target: T30, ADI-22523 Fab; experiment: BLI; tip anti-ID IgG, solution ADI-22523 Fab
T30 construct: anti-CD3 Fab by papain digestion of the IgG
T30 sequence (VH, as listed by the source limits assumed, chain 1 of 2): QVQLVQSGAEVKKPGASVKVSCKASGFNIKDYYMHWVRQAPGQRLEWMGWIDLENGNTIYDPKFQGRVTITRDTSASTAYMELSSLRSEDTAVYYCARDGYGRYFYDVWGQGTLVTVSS
T30 sequence (VL, as listed by the source limits assumed, chain 2 of 2): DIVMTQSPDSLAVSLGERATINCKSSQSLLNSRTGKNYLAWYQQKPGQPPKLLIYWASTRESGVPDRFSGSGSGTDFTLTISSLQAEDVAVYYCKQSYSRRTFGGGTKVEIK
Method in brief: as §1

ADI-26943 = target: T31, ADI-26943; experiment: SPR Carterra avidity, yeast anti-ID, *koff limit
T31 construct: anti-CD3 antibody made in CHO cells, captured by anti-human Fc
Method in brief: as §2

ADI-26924 = target: T32, ADI-26924; experiment: SPR Carterra avidity, yeast anti-ID, *koff limit
T32 construct: anti-CD3 antibody made in CHO cells, captured by anti-human Fc
T32 sequence (VH, as listed by the source, chain 1 of 2): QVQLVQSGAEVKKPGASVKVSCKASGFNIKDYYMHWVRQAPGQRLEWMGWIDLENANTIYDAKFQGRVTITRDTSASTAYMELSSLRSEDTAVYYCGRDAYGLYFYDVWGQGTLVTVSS
Method in brief: as §2

ADI-26920 IgG = target: T33, ADI-26920 IgG; experiment: SPR Carterra avidity, yeast anti-ID, *koff limit
T33 construct: anti-CD3 IgG
Method in brief: as §2

ADI-26906 IgG = target: T34, ADI-26906 IgG; experiment: SPR Carterra avidity, yeast anti-ID, *koff limit
T34 construct: anti-CD3 IgG
T34 sequence (VH, as listed by the source limits assumed, chain 1 of 2): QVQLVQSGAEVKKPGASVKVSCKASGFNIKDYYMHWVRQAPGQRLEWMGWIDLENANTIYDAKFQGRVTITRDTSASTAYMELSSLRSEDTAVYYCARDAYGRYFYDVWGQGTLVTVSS
Method in brief: as §2

ADI-76357 = target: T35, ADI-76357; experiment: SPR Carterra avidity, yeast anti-ID, *koff limit
T35 construct: anti-CD3 antibody made in CHO cells, captured by anti-human Fc
T35 sequence (VH, as listed by the source, chain 1 of 2): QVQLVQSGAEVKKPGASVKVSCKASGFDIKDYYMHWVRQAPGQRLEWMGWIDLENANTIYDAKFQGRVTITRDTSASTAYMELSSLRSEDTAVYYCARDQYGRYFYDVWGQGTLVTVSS
Method in brief: as §2

ADI-26913 IgG = target: T36, ADI-26913 IgG; experiment: SPR Carterra avidity, yeast anti-ID, *koff limit
T36 construct: anti-CD3 IgG
Method in brief: as §2

ADI-26919 = target: T37, ADI-26919; experiment: SPR Carterra avidity, yeast anti-ID, *koff limit
T37 construct: anti-CD3 antibody made in CHO cells, captured by anti-human Fc
Method in brief: as §2

ADI-26916 IgG = target: T38, ADI-26916 IgG; experiment: SPR Carterra avidity, yeast anti-ID, *koff limit
T38 construct: anti-CD3 IgG
T38 sequence (VH, as listed by the source, chain 1 of 2): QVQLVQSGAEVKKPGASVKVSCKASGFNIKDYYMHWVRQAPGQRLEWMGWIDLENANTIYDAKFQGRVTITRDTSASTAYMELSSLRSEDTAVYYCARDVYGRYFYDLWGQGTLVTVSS
Method in brief: as §2

B1: ADI-34141 (antibody, V domains shown)
VH: EVQLLESGGGLVQPGGSLRLSCAASGFTFSSYAMSWVRQAPGKGLEWVSTISGSGGSTYYADSVKGRFTISRDNSKNTLYLQMNSLRAEDTAVYYCARLGGRRGSGSSYYYYYGMDVWGQGTTVTVSS
VL: not shown
notes: anti-ID IgG
For B1, the Kd (ADI-22523 IgG) was 2.83 nM, the Kd (ADI-74967) was 32 nM and the Kd (ADI-67447) was 17 nM. B1: binds (ADI-70326); binds (ADI-67450); binds (ADI-26912). For the same binder, the binding result (ADI-26921 IgG) was “binds”, the Kd (ADI-74966) was 51 nM and the binding result (ADI-76362) was “binds”. B1: binds (ADI-26909); binds (ADI-50024); binds (ADI-48587). For the same binder, the binding result (ADI-48592) was “binds”, the Kd (ADI-74965) was 33 nM and the binding result (ADI-76358) was “binds”. The Kd (ADI-48576) was 22 nM, the Kd (ADI-74968) was 63 nM and the binding result (ADI-76361) was “binds”. For the same binder, the Kd (ADI-76359) was 14 nM, the binding result (ADI-48650) was “binds” and the Kd (ADI-76360) was 54 nM. B1: no binding (tested: up to 200 nM) (ADI-67445); no binding (tested: up to 200 nM) (CTL-62227); no binding (tested: up to 200 nM) (CTL-62223). B1: no binding (tested: up to 200 nM) (ADI-26915); no binding (tested: up to 200 nM) (CTL-62240); no binding (tested: up to 200 nM) (ADI-70327). For the same binder, the binding result (CTL-62228) was “no binding (tested: up to 200 nM)”, the binding result (ADI-70330) was “no binding (tested: up to 200 nM)” and the Kd (ADI-22523 Fab) was 16.5 nM. It also gave a Kd (ADI-26943) of 5.7 nM, a Kd (ADI-26924) of 5.4 nM and a Kd (ADI-26920 IgG) of 7.1 nM. It also gave a Kd (ADI-26906 IgG) of 13 nM, a Kd (ADI-76357) of 7.6 nM and a Kd (ADI-26913 IgG) of 7 nM. For the same binder, the Kd (ADI-26919) was 10 nM and the Kd (ADI-26916 IgG) was 10 nM.
